Measurements: the DeepSol protein solubility set

Experiment: soluble on expression in E. coli; label from the status in PepcDB or PDB records

Soluble on expression in E. coli, soluble:
MEPEEERIRYSQRLRGTMRRRYEDDGISDDEIEGKRTFDLEEKLHTNKYNANFVTFMEGKDFNVEYIQRGGLRDPLIFKNSDGLGIKMPDPDFTVNDVKMCVGSRRMVDVMDVNTQKGIEMTMAQWTRYYETPEEEREKLYNVISLEFSHTRLENMVQRPSTVDFIDWVDNMWPRHLKESQTESTNAILEMQYPKVQKYCLMSVRGCYTDFHVDFGGTSVWYHIHQGGKVFWLIPPTAHNLELYENWLLSGSQGDIFLGDRVSDCQRIELKQGYTFVIPSGWIHAVYTPTDTLVFGGNFLHSFNIPMQLKIYNIEDRTRVPNKFRYPFYYEMCWYVLERYVYCITNRSHLTKEFQKESLSMDLELNGLESGNGDEEAVDREPRQVHLTHFELEGLRCLVDKLESLPLHKKCVPTGIEDEDALIADVKILLEELANSDPKLALTGVPIVQWP
MEINEKLLRQIIEDVLSEMKGSDKPVSFNAPAASAAPQATPPAGDGFLTEVGEARQGTQQDEVIIAVGPAFGLAQTVNIVGIPHKSILREVIAGIEEEGIKARVIRCFKSSDVAFVAVEGNRLSGSGISIGIQSKGTTVIHQQGLPPLSNLELFPQAPLLTLETYRQIGKNAARYAKRESPQPVPTLNDQMARPKYQAKSAILHIKETKYVVTGKNPQELRVAL
METFTVKMGADSGLLQFEPANVTVHPGDTVKWVNNKLPPHNILFDDKQVPGASKELADKLSHSQLMFSPGESYEITFSSDFPAGTYTYYCAPHRGAGMVGKITVEG
YPFWAQQTYPETPREPTGRIVCANCHLAAKPTEVEVPQSVLPDTVFKAVVKIPYDTSVQQVGADGSKVGLNVGAVLMLPEGFKIAPEDRIPEELKEEIGDVYFQPYGEDKDNIVIVGPLPGEQYQEIVFPVLSPNPANDKNIHFGKYSVHVGGNRGRGQVYPTGEKSNNNLYSAAATGTISKIAKQEGEDGSVKYLVDIKTESGEVVSDTIPAGPELIVSEGQAVTAGDALTNNPNVGGFGQLDAEIVLQDANR
GIDPFTNEAASAAGVVGGMVDSITQAINQLDEGPMGDPEGSFVDYQTTMVRTAKAIAVTVQEMVTKSNTSPEELGPLANQLTSDYGRLASQAKPAAVAAENEEIGAHIKHRVQELGHGCSALVTKAGALQCSPSDVYTKKELIECARRVSEKVSHVLAALQAGNR
GAMDAAVAPEERHLSKMQQNGYENPTYKFFEQMQN
TEFGSELKSFPEVVGKTVDQAREYFTLHYPQYNVYFLPEGSPVTRDLRYNRVRVFYNPGTNVVNHVPHVG
MEFVVEEGKLVNEDCSTLVLPALSIGNVGQLAVDLLVSSTGAERVGYLDDPNLLPCVGNDAYGPLPCGEIALPLEVYESSSIATTLAQQRSPVAKGMMIKFAENIANFAASSGKKHIIVLSSLDFQRLHNLDMSRGPQVYYLSNAESDGRDDHCERLGFGRLHEYDSEGRCWKYLSSVFEKNSVEELALPSEDELEDIDYYPSLPFAALFSAFKARGLKMTCLLCYCSEGDNIPEAFLLAEASSKLMGLTPDKFHGEEGGKWQIPYSWKSMYGAPPDMSMF
MTHKGSCHCGRIAFEVDGEPGSAMACNCSICQRKGSLLWFVPREHLHLLTPDENASTYTFNKHVIRHRFCPVCGMHPYGEGTGADGKAMVAINIRCLEDIDLAAVPVTQFDGRSRLEHHHHHH

Soluble on expression in E. coli, not soluble:
MAHHHHHHMKNNEEWEKEKIYDRQLRLWGVKAQNRMMKSNVLILGLSGINIEICKNLILNGINITIIDDNIVDEEMVENIFFLNESDIQNYACVAIFKELKSINKMINMKAYIGRMDTSNDSIIIESELVQNADGEISNTKMGKTFSVEKYISNYTSVCVSCEDYPLYKLVKMNEFCHEKNIGFFAAMCNGKFAFLFSDFGNHVIEESYYKAKEGQRKGETGANKAGELQKEGETGANNGGIPIQYCTLSHFLKVPFENFDKKTNKIIFPMFALILFELNKQLNKSDKSIDEQEFSTFCDQFSLAKCKESLGEITKTYRVAFSPSCSIMGGVTSQEIRKFVSKQHESIPNFCVFDMNQSVVCTSMIS
MAHHHHHHMLEDPNFSDFTGLHKSVTALTAANSDLARYGNELHKMILRYQLEVLSGTCNYVEVLSLAAYNGNLTAAEYVNNIEPVILGDDSVSVDIDTRTNTLSFRDSSKAKMLSYFNKIVANVDTVPASSLATTSGRYSDFTHVAASSSKREVMPLAADLDAARARSTSIYALQKACMNSKAERIEEAKKSEDKKRERAVAERREQEEAKKEETQKAYIRKLYAEYNERQRQERGKEVLRKLRIKYPGFKVDESIVYRSAAGFEDELTRLLAAFKRRGVDNDRKEILQANLYERALRALEIPKRKDYEAQNAERTRAERAAARENYLAEHRREYDRRQNEKAVLSKFLHDADEFERTWRKRANIDKPSKRDEQQRLLEEEMRRLGGE
MGSDKIHHHHHHMKQSKKIIITCAVTGSIHTPTMSPYLPITPEEIVKEGVAAAEAGAAMLHLHARDPLNGRPSQDPDLFMRFLPQLKERTDAILNITTGGGLGMSLDERLAPARAARPEVASMNMGSLNFNISQAAAKFDTFKFDWERPYLAGTRDFILSNTFSQIERGMTELGASGTRFEFECYDVGHLYNLAHFVDRKLVEPPFFLQCVFGILGGIGADPENLLHMRTIADRLFGQDYYLSVLAAGRHQMPFVTMSAILGGNVRVGLEDSLYSGKGQLATSNAEQVRKIRRIIEELSLDIATPDEARAMLKTKGANETSF
MTKEAVLYKKEDGRIRCLACARKCLIGEGQVGFCGVRSVRNGKLYLDVYGKIAAAHIDPIEKKPLVHFNPGSKVFSFSTYGCNWMCMYCQNYDISQRRKAEGVELSPEEIVELAMGYDVDGMTYTYNEPAIFSEFAHDVGIVAKRYGLFNTMVSNGYWTPNLVDYVKDFLDAVTIDFKGNGEQKFLRRYTGATSAEPIIETASELSKKGIHVEITDLIIPQIGDDLQAAKQLLTKLYDQLGADIPIHFLRFHPDYKLNYIPWTPVETLERHYKLAKELGFKFVYVGNVPGHPYENTYCPNCGNLVIRRYSFDILEWHLTEDMRCKFCGYKLPIRGKLSRHAFKERFEPVFI
MGGSHHHHHHGMASALANEEDDPVVQEIDVYLAKSLAEKLYLFQYPVRPASMTYDDIPHLSAKIKPKQQKVELEMAIDTLNPNYCRSKGEQIALNVDGACADETSTYSSKLMDKQTFCSSQTTSNTSRYAAALYRQGELHLTPLHGILQLRPSFSYLDKADAKHREREAANEAGDSSQDEAEDDVKQITVRFSRPESEQARQRRVQSYEFLQKKHAEEPWVHLHYYGLRDSRSEHERQYLLCPGSSGVENTELVKSPSEYLMMLMPPSQEEEKDKPVAPSNVLSMAQLRTLPLADQIKILMKNVKVMPFANLMSLLGPSIDSVAVLRGIQKVAMLVQGNWVVKSDILYPKDSSSPHSGVPAEVLCRGRDFVMWKFTQSRWVVRKEVATVTKLCAEDVKDFLEHMAVVRINKGWEFILPYDGEFIKKHPDVVQRQHMLWTGIQAKLEKVYNLVKETMPKKPDAQSGPAGLVCGDQRIQVAKTKAQQNHALLERELQRRKEQLRVPAVPPGVRIKEEPVSEEGEEDEEQEAEEEPMDTSPSGLHSKLANGLPLGRAAGTDSFNGHPPQGCASTPVARELKAFVEATFQRQFVLTLSELKRLFNLHLASLPPGHTLFSGISDRMLQDTVLAAGCKQILVPFPPQTAASPDEQKVFALWESGDMSDQDCCVSYGGMWYLKGTVQS
GPGSMQEIIDTVNRYTLRSAAFRDKPTPGLAARQFLCSLLLHRKLDSIRLSSIARYMFSTEALIAVSRDGIQTISCEGNTLWPICTIPNGLTSEISGVAVTPEGTLVCSSNGICYLEGENLRVAEDCASSSYAQNVLCISCTPDGRYIATGGGTATVTVWTSDLKPLHHFAGHTDWVRFVKFARGRSPALQLFSTGDDGVICQWDVLAGSLISRVDYSLGESIQLFEVSYYSGLMAISSGTSLIALYCPQSDNTTRAVGEDVLRLQPMALITGAHEYTPTAGKFTDDSQWLASASEDETIALTYVLDPQTCFVCKKFVTRRRCFSFMNIFNSICILAAPPVSSVIVIAACSSDGTVVQWVVDPRTNRASYTKKLQLHLGSFLGMDLIPGDDLNHLL
MAHHHHHHMLLAMCRYDCVGGCRERVCGGGGGGRGKGGEKKYRTEMGRASKDKRDIYYRKAKEEGYRARSAYKLLQLHEEFNILNRDEIQTGVVVLCAAPGSWSQLLARHLREEVGGRTEKQSLGAPRIVAVDLQEMMPIEGVQLLQGDITSEATAREIIRLLNIKEDTASVNDAYVDSEEDKSAIQTDKGGRSTARRPSLAPGGRNSYSDHTNSCEKKADLVVCDGAPDVTGMHELDEYLQHHLLLAALNITTFVLRCGGTFVTKIFRGPNTPFLVAKSEVFFRHVIIAKPRSSRNASMEAFMVCQDYQPPAGYRPSFDRPLTTTTRCFTPVAPLPPAFMHLQSEGRQITQKEKKGVEDQACMMESVIVPFLACGDLSGYDADMCYDRDSDVPVLPPVHPPRQAPYMTTACKNDEDSVVATNGAEDIMKRRRVE
MMSVPVMADEGTKWDWPLQKGDGVVNVLDDDDHFEVGLEAHNFLPKEIEVKNIGELLEIHMEHNVKKDSFGDVSRNITRCYKLPKNVDMKTIKSNLDSHGILHIEARKMH
MDNILNYPTSTHVDRLVPKTAFYKHLEINTRLKMRFVEDVERIQWLYKLAPSTMNVDTGKTVHEIVMFLVTLKAEDMPDDVFLAIDRQMPRHVVFVLQYANRGRLLLNYKEWVDANKTRFNILKTFRTEWMPLAKVKLELAGSSLDNIYEAFAGQISGFGTTNAADTKQIMALQDELARKRRAAEALQKRVRNERQFAKQMELNSEARALKREIAKLEEVLKTLENN
MNLDDKALFLDAMEDVQPLKRHTDVHWQPTRNLKTPQRIDTLQLDNFLTTGFLDILPLNEPLEFRREGLQQGVIDKLRSGKYPQQASLNLLRQPVETCRKMLFRFILEAQKEGLRNVLIIHGKGREAKSHANIVRSYVARWLTEFEDVQAYCSALPHHGGGGACYVALRKTVQAKQDNWERHAKRSR
MGSDKIHHHHHHMLGQRIKSLRKAKKLTQSDVADGIMTKSMLSMIENEKATPSLPALQSIAHRLHVSIDALLIDPRAVEMKQMIEKINSTASGYYAEGQIATMLEPYLEPAINSYWQGQIYYEYGSALRFSDTEKGLHYFDLAEDVFQQLGLRDEQIKVQISKVYFLFFLRRYEEAYRKIDGMMIFQDVPLAHETFLDYQMLQAIRVSVINDNWSQSIVFLREGIRYMREKGVYSDVSNYHRLLALFLSLEEDYEAAEFELEKLRHFFLFTEATALDQILVDLTKGSIAVHREDYAGIREARERLIEVEIEACLHYIGYFEVYLCLWNDSKEELTFDLPSAVSKIWRNAHLWRAGGEYDHAMMLYALAFAMQAGVGLDRQAEVEELTTQLSPGHFKQKIEQTLARLT
MLSCRDLVIRQGGKVLWQNLTFTISAGERVGIHAPSGTGKTTLGRVLAGWQKPTAGDVLLDGSPLPLHQYCPVQLVPQHPELTFNPWRSAGDAVRDAWQPDPETMRRLHVQPEWLTRRPMQLSGGELARIAILRALDPRTRFLIADEMTAQLDPSIQKAIWVYVLEVCRSRSLGMLVISHQSALLDQVCTRHLQVE
MAHHHHHHMANDDPKEPQPAVLNPEVDQQDTSVNGDDGDAERDGGKDVPVFTPAGARVEVHPLVLLSLVDHYARVNAKVSQKRRVAGLLLGRHLSHPGGIQVLDINNSFAVPFDEDPQNPDVWFLDTNYAEEMFLMFRRVHPKVRIVGWYSAGPSCAVQPNDMLLHLLIADRFSLNPVYCIVNTDPNNKGVPVLAYTTVHGRDGARSLEFRNIPTHLGAEEAEEIGIEHLLRDLTDSTITTLSAQVQERELSLDHLGRVLQSIEEYLNDVAEGTMPISEDVLSVLQEVISLQPHIYHLKTSTDMVRHANDQAIAMFIAAIGRCVCTLYDVIANRRRIAREIQEVRARRERSLKEKLGNEQHKAKEAATEESRKEGAAKN
